Measurements: publication PMC9409550

How the values were obtained:
Assay in all cases: flow cytometry on cells
[1] = target: Khosta-2 RBD, yeast-displayed (bat sarbecovirus Khosta-2)
[2] = target: Rs4874 RBD, yeast-displayed (bat sarbecovirus Rs4874)
[3] = target: BANAL-236 RBD, yeast-displayed (bat sarbecovirus BANAL-236)
[4] = target: BANAL-103 RBD, yeast-displayed (bat sarbecovirus BANAL-103)
[5] = target: WIV16 RBD, yeast-displayed (bat sarbecovirus WIV16)

CDY14HL-Fc1, sequence (Q9BYF1 18-615): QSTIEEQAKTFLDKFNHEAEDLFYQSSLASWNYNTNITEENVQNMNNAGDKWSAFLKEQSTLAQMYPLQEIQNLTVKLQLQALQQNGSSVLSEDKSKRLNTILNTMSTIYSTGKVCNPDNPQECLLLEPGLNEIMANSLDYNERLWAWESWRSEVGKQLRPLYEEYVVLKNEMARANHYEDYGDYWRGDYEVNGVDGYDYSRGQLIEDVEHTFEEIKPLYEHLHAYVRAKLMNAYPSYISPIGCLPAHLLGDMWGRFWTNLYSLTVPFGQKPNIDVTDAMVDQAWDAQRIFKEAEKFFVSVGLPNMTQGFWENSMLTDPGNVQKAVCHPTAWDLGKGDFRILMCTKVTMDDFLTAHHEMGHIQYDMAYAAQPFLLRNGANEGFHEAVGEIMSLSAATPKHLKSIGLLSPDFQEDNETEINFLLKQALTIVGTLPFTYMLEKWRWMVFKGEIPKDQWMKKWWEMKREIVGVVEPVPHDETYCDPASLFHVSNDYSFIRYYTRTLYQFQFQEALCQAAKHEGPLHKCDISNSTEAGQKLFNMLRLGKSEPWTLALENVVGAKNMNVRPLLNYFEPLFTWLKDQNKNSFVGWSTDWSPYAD

## CDY14HL-Fc1 (from UniProt Q9BYF1 18-615) (Fc fusion)
[1]
  Kd: 1900 pM
[2]
  Kd: 230 pM
[3]
  Kd: 240 pM
[4]
  Kd: 300 pM
[5]
  Kd: 240 pM
